Results reported in US7947648 (AEROVANCE, dated 2011).

What was measured:
[1] = molecular target: T1, IL-4 receptor alpha chain (UniProt P24394 26-232, limits assumed); assay: Biacore (SPR), IL-4 receptor α chain immobilized; n = 7
T1 construct: also called IL-4Rα; IL-4 receptor α chain
T1 sequence (looked up): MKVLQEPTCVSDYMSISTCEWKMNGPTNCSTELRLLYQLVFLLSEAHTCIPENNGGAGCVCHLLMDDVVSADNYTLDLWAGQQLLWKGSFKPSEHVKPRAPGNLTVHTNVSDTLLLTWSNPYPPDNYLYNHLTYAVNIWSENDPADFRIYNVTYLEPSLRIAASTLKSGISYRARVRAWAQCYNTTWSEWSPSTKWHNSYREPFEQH

[2] = molecular target: T1, IL-4 receptor alpha chain; assay: Biacore (SPR), IL-4 receptor α chain immobilized
[3] = molecular target: T1, IL-4 receptor alpha chain; assay: cell-based or functional assay
[4] = molecular target: T1, IL-4 receptor alpha chain; assay: Biacore assay, pre- and post-nebulized IL-4RA samples (Aeroneb Pro); no difference between them

Kd [1]: 0.14 nM | koff [2]: 0.0017 s⁻¹ | kon [2]: 1.6e+07 M⁻¹ s⁻¹ | EC50, inhibition of IL-4-induced cell proliferation (TF-1/IL-4 proliferation assay), pre and post nebulization (Aeroneb Pro) [3]: 0.2 to 0.3 nM | IC50, TF-1 proliferation assay, post nebulization (Pari LC Plus) [3]: 0.483 nM | IC50, TF-1 proliferation assay, pre nebulization (Pari LC Plus) [3]: 0.459 nM | Kd [4]: ~0.1 nM
B1: IL-4RA (mutant human IL-4 protein with the R121D/Y124D pair of substitutions) (ligand)
chain: MHKCDITLQEIIKTLNSLTEQKTLCTELTVTDIFAASKNTTEKETFCRAATVLRQFYSHHEKDTRCLGATAQQFHRHKQLIRFLKRLDRNLWGLAGLNSCPVKEANQSTLENFLERLKTIMDEKDSKCSS
notes: The entry may carry an N-terminal methionine; also called mhIL-4; IL-4 mutein
